Consider four compounds from paper PMC9646914, “Nicking mechanism underlying the DNA phosphorothioate-sensing antiphage defense by SspE” (Nature Communications, 2022).

Data set [1] deals with SspE (Streptomyces yokosukanensis DSM 40224). Briefly: MST. Particulars: EMSA: 10 mM Tris-HCl pH 8.0 (20 mM in Fig 3 legend), 100 mM NaCl, 0.01 mM EDTA, 5% glycerol, 15 min 30 C, MST: 10 mM Tris-HCl pH 8.0, 100 mM NaCl, 12.5 nM DNA …. For orientation: Mobility shift assays separate free from complexed probe on a gel.
Data set [2] concerns the target T1, SspE (Streptomyces yokosukanensis, UniProt A0A6I8WFL9).
T1 construct: full length, 771 residues (2,313-bp gene); NTD 1-324 GTPase (DGQQR motif 96-100), CTD 332-771 HNH nickase; expressed in E. coli BL21(DE3), Ni-NTA and Superdex 200
Briefly: malachite green phosphate release (QuantiChrom ATPase/GTPase kit). The class given is biochemical. Particulars: 100 uM GTP, 1 uM protein, alone or with 1 uM 40-bp DNA with or without phosphorothioate; Mg acetate 10 mM, pH 7.9, 28 C.

Data set [3] has as its system SspE-CTD (Streptomyces yokosukanensis DSM 40224). Description: EMSA. Particulars: EMSA: 10 mM Tris-HCl pH 8.0 (20 mM in Fig 3 legend), 100 mM NaCl, 0.01 mM EDTA, 5% glycerol, 15 min 30 C; MST: 10 mM Tris-HCl pH 8.0, 100 mM NaCl, 12.5 nM DNA ….
The test system of data set [4] is SspE (Streptomyces yokosukanensis DSM 40224). Briefly: EMSA. Particulars: EMSA: 10 mM Tris-HCl pH 8.0 (20 mM in Fig 3 legend), 100 mM NaCl, 0.01 mM EDTA, 5% glycerol, 15 min 30 C; MST: 10 mM Tris-HCl pH 8.0, 100 mM NaCl, 12.5 nM DNA ….
Data set [5] concerns SspE K40A (Streptomyces yokosukanensis DSM 40224). Briefly: EMSA. Particulars: EMSA: 10 mM Tris-HCl pH 8.0 (20 mM in Fig 3 legend), 100 mM NaCl, 0.01 mM EDTA, 5% glycerol, 15 min 30 C; MST: 10 mM Tris-HCl pH 8.0, 100 mM NaCl, 12.5 nM DNA ….

pKd: −log10 of the molar value.

T1 sequence (A0A6I8WFL9 entry or part of it): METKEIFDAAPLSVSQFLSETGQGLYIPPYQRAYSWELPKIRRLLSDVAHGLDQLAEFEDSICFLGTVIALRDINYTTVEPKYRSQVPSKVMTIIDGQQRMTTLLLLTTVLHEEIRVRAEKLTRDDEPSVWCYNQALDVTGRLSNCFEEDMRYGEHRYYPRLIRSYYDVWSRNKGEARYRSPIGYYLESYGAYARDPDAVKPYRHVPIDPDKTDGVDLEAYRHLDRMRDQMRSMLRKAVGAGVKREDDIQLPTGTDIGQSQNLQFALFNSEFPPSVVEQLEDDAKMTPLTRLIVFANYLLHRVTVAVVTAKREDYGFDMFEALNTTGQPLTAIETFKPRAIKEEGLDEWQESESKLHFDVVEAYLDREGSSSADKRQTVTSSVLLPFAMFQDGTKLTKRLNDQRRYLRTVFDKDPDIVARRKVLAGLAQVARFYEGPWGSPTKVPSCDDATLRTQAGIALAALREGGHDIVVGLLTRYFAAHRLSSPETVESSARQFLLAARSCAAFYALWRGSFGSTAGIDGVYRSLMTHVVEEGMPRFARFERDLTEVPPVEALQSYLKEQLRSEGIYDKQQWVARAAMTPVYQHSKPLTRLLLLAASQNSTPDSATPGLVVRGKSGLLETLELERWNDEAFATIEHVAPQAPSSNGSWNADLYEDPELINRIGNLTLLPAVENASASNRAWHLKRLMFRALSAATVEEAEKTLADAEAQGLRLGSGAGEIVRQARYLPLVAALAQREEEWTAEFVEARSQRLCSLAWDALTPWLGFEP

The term pKd denotes the Kd on a negative log10 scale, so that one unit is a factor of ten. Take 2-kb non-PT DNA (CCA): the pKd in data set [1] is 4.74.

In the case of `Nc1nc2c(ncn2[C@@H]2O[C@H](COP(=O)(O)OP(=O)(O)OP(=O)(O)O)[C@@H](O)[C@H]2O)c(=O)[nH]1` [GTP], the GTPase activity result in data set [2] is “The GTP hydrolysis activity of SspE and its mutants was assayed”.

Consider linearized pUC19, for which the pKd in data set [3] is 5.52; in data set [4], 4.75; in data set [5] it was 4.65.

Regarding 2-kb PT DNA (CpsCA at both termini), the pKd in data set [1] (phosphorothioate C12-C13 of primer #7 and C17-C18 of primer #8) was 5.07.
